Results from patent US20220056084A1 (CONSEJO SUPERIOR DE INVESTIGACIONES CIENTIFICAS CSIC, published 2022).

Target: the molecule itself
Assay: gel filtration and sedimentation velocity (self-association)

B1: H10-LOV543m3-WH1 (other)
chain: MGSSHHHHHHHHHHSSGLVPRGSLATTLERIEKNFVITDPRLPDNPIIFASDSFLQLTEYSREEILGRNCRFLQGPETDRATVRKIRDAIDNQTEVTVQLINYTKSGKKFWNLFHLQPMRDQKGDVQYFIGVQLDGTEHVRDAAEREAVMEAKKTAENIDEAAKLIESSHTLTLNEKRLVLCAASLIDSRKPLPKDGYLTIRADTFAEVFGIDVKHAYAALDDAATKLFNRDIRRYVKGKVVERMRWVFHVKYREGQGCVELGFSPTIIPHLTMLHKEFTSYQLK
notes: Chimera of Avena sativa LOV2 (G528A, L531E, I532A) and wild-type RepA-WH1; carries the FMN chromophore; Dimer in solution; also called LOV2m3-WH1; LOV543-WH1m3; not shown: N-terminal His10 tag peptide
- binding result: binds
